The chains are these.
B1: Protein PALS1 (Homo sapiens), Q8N3R9 (parent)
chain: MTTSHMNGHVTEESDSEVKNVDLASPEEHQKHREMAVDCPGDLGTRMMPIRRSAQLERIRQQQEDMRRRREEEGKKQELDLNSSMRLKKLAQIPPKTGIDNPMFDTEEGIVLESPHYAVKILEIEDLFSSLKHIQHTLVDSQSQEDISLLLQLVQNKDFQNAFKIHNAITVHMNKASPPFPLISNAQDLAQEVQTVLKPVHHKEGQELTALLNTPHIQALLLAHDKVAEQEMQLEPITDERVYESIGQYGGETVKIVRIEKARDIPLGATVRNEMDSVIISRIVKGGAAEKSGLLHEGDEVLEINGIEIRGKDVNEVFDLLSDMHGTLTFVLIPSQQIKPPPAKETVIHVKAHFDYDPSDDPYVPCRELGLSFQKGDILHVISQEDPNWWQAYREGDEDNQPLAGLVPGKSFQQQREAMKQTIEEDKEPEKSGKLWCAKKNKKKRKKVLYNANKNDDYDNEEILTYEEMSLYHQPANRKRPIILIGPQNCGQNELRQRLMNKEKDRFASAVPHTTRSRRDQEVAGRDYHFVSRQAFEADIAAGKFIEHGEFEKNLYGTSIDSVRQVINSGKICLLSLRTQSLKTLRNSDLKPYIIFIAPPSQERLRALLAKEGKNPKPEELREIIEKTREMEQNNGHYFDTAIVNSDLDKAYQELLRLINKLDTEPQWVPSTWLR

The record followed here is IntAct's records for PubMed 33758649.

The assay covers variants of B1. As to conditions: with vemp_sars2 E.
Regarding F318W, the “effect of a mutation on the interaction” value is “increasing interaction strength”.
